According to patent US20220259295A1 (INSERM INSTITUT NATIONAL DE LA SANT ET DE LA RECHERCHE M …, published 2022):
Where two headings read alike, the source gives them in different places.

T1: human protease nexin-1 (human, UniProt P07093 20-398)
T1 chain: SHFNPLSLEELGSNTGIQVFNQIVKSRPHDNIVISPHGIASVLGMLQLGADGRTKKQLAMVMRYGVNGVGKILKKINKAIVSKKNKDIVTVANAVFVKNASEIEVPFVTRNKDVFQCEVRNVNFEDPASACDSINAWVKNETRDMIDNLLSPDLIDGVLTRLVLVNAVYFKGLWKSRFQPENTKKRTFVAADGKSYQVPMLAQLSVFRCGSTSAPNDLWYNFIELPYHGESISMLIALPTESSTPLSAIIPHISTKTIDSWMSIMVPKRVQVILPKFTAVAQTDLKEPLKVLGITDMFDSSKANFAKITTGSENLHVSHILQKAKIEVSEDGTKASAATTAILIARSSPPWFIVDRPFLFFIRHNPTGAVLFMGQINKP

T2: murine protease nexin-1 (murine, UniProt Q07235 20-397)
T2 chain: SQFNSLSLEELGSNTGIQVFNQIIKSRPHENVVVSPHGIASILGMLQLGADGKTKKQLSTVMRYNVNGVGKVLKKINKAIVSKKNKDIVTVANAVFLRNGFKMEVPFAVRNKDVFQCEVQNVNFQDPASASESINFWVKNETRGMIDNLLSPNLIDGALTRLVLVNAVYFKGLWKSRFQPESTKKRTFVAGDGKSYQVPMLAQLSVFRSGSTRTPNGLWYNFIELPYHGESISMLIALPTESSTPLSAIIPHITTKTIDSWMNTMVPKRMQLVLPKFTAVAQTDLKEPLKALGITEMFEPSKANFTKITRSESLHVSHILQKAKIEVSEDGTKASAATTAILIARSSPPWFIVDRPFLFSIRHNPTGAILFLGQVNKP

T3: human protease nexin-1 (human, UniProt P07093 20-398)
T3 sequence (looked up): T1 chain

T4: PN-1 released from TRAP-activated platelets (Homo sapiens (Human), UniProt P07093 20-398)
T4 sequence: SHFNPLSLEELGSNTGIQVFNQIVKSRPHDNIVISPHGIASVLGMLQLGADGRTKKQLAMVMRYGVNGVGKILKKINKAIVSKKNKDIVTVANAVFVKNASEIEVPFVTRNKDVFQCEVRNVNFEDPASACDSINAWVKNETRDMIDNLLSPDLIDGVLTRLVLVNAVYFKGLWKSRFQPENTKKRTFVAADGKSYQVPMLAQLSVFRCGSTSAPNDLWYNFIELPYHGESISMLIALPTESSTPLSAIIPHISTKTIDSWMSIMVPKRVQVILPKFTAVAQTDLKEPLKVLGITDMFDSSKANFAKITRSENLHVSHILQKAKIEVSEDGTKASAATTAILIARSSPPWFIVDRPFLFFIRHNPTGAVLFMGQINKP

T5: murine protease nexin-1 (murine, UniProt Q07235 20-397)
T5 sequence (looked up): T2 chain

T6: murine plasminogen activator inhibitor-1 (murine, UniProt P22777 23-402)
T6 construct: also called mPAI-1; murine PAI-1
T6 sequence (looked up): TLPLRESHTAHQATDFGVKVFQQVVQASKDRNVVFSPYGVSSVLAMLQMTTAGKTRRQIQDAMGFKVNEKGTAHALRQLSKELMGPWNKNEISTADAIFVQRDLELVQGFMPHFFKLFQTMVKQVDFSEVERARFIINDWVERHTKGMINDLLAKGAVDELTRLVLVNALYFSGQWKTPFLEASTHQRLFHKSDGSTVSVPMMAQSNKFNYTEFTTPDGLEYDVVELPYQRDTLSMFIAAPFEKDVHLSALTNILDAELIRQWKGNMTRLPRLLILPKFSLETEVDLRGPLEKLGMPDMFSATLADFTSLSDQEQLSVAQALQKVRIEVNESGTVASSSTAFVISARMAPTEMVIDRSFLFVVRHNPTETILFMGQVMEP

B1: B11-A08 (VHH)
chain: EVQLQASGGGFVQPGGSLRLSCAASGSTWFREIMGWFRQAPGKEREFVSAISSDPTWHAYYADSVKGRFTISRDNSKNTVYLQMNSLRAEDTATYYCAPLAGTESIHWWDPWHESSYWGQGTQVTVSSGGGSGGGSGGGSGGGSEVQLQASGGGFVQPGGSLRLSCAASGYYSYSSTMGWFRQAPGKEREFVSAISFYSDMAHYYADSVKGRFTISRDNSKNTVYLQMNSLRAEDTATYYCAAFSKLGKIKYWGQGTQVTVSSHHHHHH
notes: Bivalent (biparatopic) tandem B11-linker-A08; also called bivalent hybribody B11-A08; bivalent VHH B11A08
B2: B11 (VHH)
VHH: EVQLQASGGGFVQPGGSLRLSCAASGSTWFREIMGWFRQAPGKEREFVSAISSDPTWHAYYADSVKGRFTISRDNSKNTVYLQMNSLRAEDTATYYCAPLAGTESIHWWDPWHESSYWGQGTQVTVSS
notes: Monovalent VHH from the synthetic hs2dAb library, made in E. coli WK6, purified by its His tag, detected by anti-cMyc or anti-6xHis; also called VHH B11; BI 1; not shown: cMyc tag and 6xHis tag (pHEN2 vector)
B3: A08 (VHH)
VHH: EVQLQASGGGFVQPGGSLRLSCAASGYYSYSSTMGWFRQAPGKEREFVSAISFYSDMAHYYADSVKGRFTISRDNSKNTVYLQMNSLRAEDTATYYCAAFSKLGKIKYWGQGTQVTVSS
notes: Monovalent VHH from the synthetic hs2dAb library; His-tagged, detected by anti-cMyc or anti-6xHis; also called VHH A08; single domain antibody A08; not shown: cMyc tag and 6xHis tag (pHEN2 vector)
B4: B11-F06 (VHH)
chain: EVQLQASGGGFVQPGGSLRLSCAASGSTWFREIMGWFRQAPGKEREFVSAISSDPTWHAYYADSVKGRFTISRDNSKNTVYLQMNSLRAEDTATYYCAPLAGTESIHWWDPWHESSYWGQGTQVTVSSGGGSGGGSGGGSGGGSEVQLQASGGGFVQPGGSLRLSCAASGDTWSLEIMGWFRQAPGKEREFVSAISSEDGWHAYYADSVKGRFTISRDNSKNTVYLQMNSLRAEDTATYYCAKIENWIQAVEGEMSDYWGQGTQVTVSSHHHHHH
notes: Bivalent (biparatopic) tandem B11-linker-F06; also called bivalent hybribody B11-F06; bivalent VHH B11F06
B5: B11-Bv (VHH)
chain: EVQLQASGGGFVQPGGSLRLSCAASGSTWFREIMGWFRQAPGKEREFVSAISSDPTWHAYYADSVKGRFTISRDNSKNTVYLQMNSLRAEDTATYYCAPLAGTESIHWWDPWHESSYWGQGTQVTVSSAAAEVQLQASGGGFVQPGGSLRLSCAASGSTWFREIMGWFRQAPGKEREFVSAISSDPTWHAYYADSVKGRFTISRDNSKNTVYLQMNSLRAEDTATYYCAPLAGTESIHWWDPWHESSYWGQGTQVTVSSHHHHHH
notes: Bivalent (monoparatopic) tandem of two B11 VHHs; also called bivalent hybribody B11-Bv; bivalent VHH B11bv
B6: F06 (VHH)
VHH: EVQLQASGGGFVQPGGSLRLSCAASGDTWSLEIMGWFRQAPGKEREFVSAISSEDGWHAYYADSVKGRFTISRDNSKNTVYLQMNSLRAEDTATYYCAKIENWIQAVEGEMSDYWGQGTQVTVSS
notes: Monovalent VHH from the synthetic hs2dAb library; His-tagged, detected by anti-cMyc or anti-6xHis; also called VHH F06; single domain antibody F06; not shown: cMyc tag and 6xHis tag (pHEN2 vector)

Experiments:
human protease nexin-1 [1] = target: T1, human protease nexin-1; test: inhibition of PN-1 activity (residual thrombin activity, chromogenic substrate)
murine protease nexin-1 [2] = target: T2, murine protease nexin-1; test: as above
human protease nexin-1 [3] = target: T3, human protease nexin-1; test: cell-based or functional assay
[4] = target: T4, PN-1 released from TRAP-activated …; test: cell-based or functional assay
murine protease nexin-1 [5] = target: T5, murine protease nexin-1; test: cell-based or functional assay
[6] = target: T7, human plasminogen activator inhibitor-1 (human, UniProt P05121 24-402); test: specificity test of Example 1 (refers to FIG. 2E-G)
T7 construct: also called hPAI-1; human PAI-1

[7] = target: T6, murine plasminogen activator inhibitor-1; test: ELISA, PAI-1 captured on anti-PAI-1 mAb, anti-6xHis detection
human protease nexin-1 [8] = target: T1, human protease nexin-1; test: inhibition of PN-1 activity (residual thrombin activity, chromogenic substrate)
murine protease nexin-1 [9] = target: T2, murine protease nexin-1; test: as above
[10] = target: T7, human plasminogen activator inhibitor-1; test: non-adsorbed phage ELISA, phage on coated hPAI-1, anti-M13 detection
[11] = target: T7, human plasminogen activator inhibitor-1; test: ELISA, PAI-1 captured on anti-PAI-1 mAb, anti-6xHis detection

T7 sequence (P05121 24-402 limits assumed): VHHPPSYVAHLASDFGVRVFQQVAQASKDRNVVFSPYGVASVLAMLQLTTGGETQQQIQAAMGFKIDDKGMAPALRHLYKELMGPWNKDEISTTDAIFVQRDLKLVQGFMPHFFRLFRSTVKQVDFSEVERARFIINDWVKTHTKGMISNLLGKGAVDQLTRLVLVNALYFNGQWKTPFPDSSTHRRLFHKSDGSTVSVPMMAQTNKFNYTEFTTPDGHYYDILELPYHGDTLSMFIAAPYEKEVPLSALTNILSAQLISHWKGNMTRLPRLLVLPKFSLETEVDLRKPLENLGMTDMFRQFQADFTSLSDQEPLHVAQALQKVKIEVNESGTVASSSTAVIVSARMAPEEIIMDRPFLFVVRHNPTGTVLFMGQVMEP

Binder | IC50 (human protease nexin-1 [1]) | IC50 (murine protease nexin-1 [2]) | IC50 (thrombin activity assay, 10 nM PN-1, 1 nM thrombin) (human protease nexin-1 [3]) | thrombin activity restored (supernatant of TRAP-activated platelets, 0.1 nM thrombin, 1 µM bivalent VHH) [4] | IC50 (thrombin activity assay, 10 nM PN-1, 1 nM thrombin) (murine protease nexin-1 [5]) | modified prothrombin time (PT), murine plasma with 62.5 nM mPN-1 and 288 nM bivalent VHH (murine protease nexin-1 [5]) | binding result [6] | binding result [7] | recovery of thrombin activity (percentage of thrombin alone; 1 nM thrombin, 10 nM PN-1, 10 µM VHH) (human protease nexin-1 [3]) | recovery of thrombin activity (percentage of thrombin alone; 1 nM thrombin, 10 nM PN-1, 10 µM VHH) (murine protease nexin-1 [5]) | IC50 (human protease nexin-1 [8]) | IC50 (murine protease nexin-1 [9]) | binding result [10] | binding result [11]
B1 | 139 nM | 395 nM | 142 nM | 100% | 524 nM | 93.2 s | no binding | – | – | – | – | – | – | –
B2 | – | – | 50 nM | – | 1580 nM | – | no binding | no binding (tested: 10 µg/mL) | 100% | 92% | 60 nM | 1270 nM | – | –
B3 | – | – | 960 nM | – | 2880 nM | – | – | no binding (tested: 10 µg/mL) | 100% | 94% | 1170 nM | 3540 nM | no binding | –
B4 | 68 nM | 254 nM | 62 nM | 88% | 414 nM | 83.3 s | no binding | – | – | – | – | – | – | –
B5 | 40 nM | 509 nM | 41 nM | 97% | 825 nM | 83.5 s | no binding | – | – | – | – | – | – | –
B6 | – | – | 290 nM | – | 560 nM | – | – | no binding (tested: 10 µg/mL) | 100% | 96% | 230 nM | 670 nM | – | no binding (tested: 10 µg/mL)
